Positions count from the first letter of the chain named. Numbers in names are those of the source.

Assay [1] addresses CD64 (FcγRI) (UniProt P12314). The experiment in a line: solution affinity SPR: antibody titrated into CD64, inhibition of CD64 binding to immobilized IgG1 MAb; average of two titrations.
The target of assay [2] is CD64 (FcγRI) (UniProt P12314). As to the kind of experiment: solution affinity SPR: inhibition of CD64 binding to immobilized IgG1 MAb.
Assay [3] deals with CD16 (FcγRIIIa V158) (UniProt P08637). As to the kind of experiment: solution affinity SPR: antibody titrated into CD16, inhibition of CD16 binding to immobilized IgG1 MAb; average of two titrations.
CD16 (FcγRIIIa V158), sequence (P08637 17-208 F176V limits assumed): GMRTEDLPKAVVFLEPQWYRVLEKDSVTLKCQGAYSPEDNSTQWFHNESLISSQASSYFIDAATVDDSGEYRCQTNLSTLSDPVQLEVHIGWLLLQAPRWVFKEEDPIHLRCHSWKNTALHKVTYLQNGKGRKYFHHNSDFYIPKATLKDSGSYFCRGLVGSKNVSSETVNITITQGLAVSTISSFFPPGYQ

CD64 (FcγRI), sequence (P12314 16-288 limits assumed): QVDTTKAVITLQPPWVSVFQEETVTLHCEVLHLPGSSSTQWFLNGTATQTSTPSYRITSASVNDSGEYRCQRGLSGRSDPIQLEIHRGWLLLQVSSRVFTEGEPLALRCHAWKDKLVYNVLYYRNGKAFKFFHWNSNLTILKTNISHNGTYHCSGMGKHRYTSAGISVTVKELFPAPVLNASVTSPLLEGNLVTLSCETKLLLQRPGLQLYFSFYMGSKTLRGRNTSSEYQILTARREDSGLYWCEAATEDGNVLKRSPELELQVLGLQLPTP

B1: YC403 (hu5c8 aglycosylated IgG4.P S228P, T299A, T307P, L309K, D399S) (antibody)
heavy: QVQLVQSGAEVVKPGASVKLSCKASGYIFTSYYMYWVKQAPGQGLEWIGEINPSNGDTNFNEKFKSKATLTVDKSASTAYMELSSLRSEDTAVYYCTRSDGRNDMDSWGQGTLVTVSSASTKGPSVFPLAPCSRSTSESTAALGCLVKDYFPEPVTVSWNSGALTSGVHTFPAVLQSSGLYSLSSVVTVPSSSLGTKTYTCNVDHKPSNTKVDKRVESKYGPPCPPCPAPEFLGGPSVFLFPPKPKDTLMISRTPEVTCVVVDVSQEDPEVQFNWYVDGVEVHNAKTKPREEQFNSAYRVVSVLPVKHQDWLNGKEYKCKVSNKGLPSSIEKTISKAKGQPREPQVYTLPPSQEEMTKNQVSLTCLVKGFYPSDIAVEWESNGQPENNYKTTPPVLSSDGSFFLYSRLTVDKSRWQEGNVFSCSVMHEALHNHYTQKSLSLSLG
light: DIVLTQSPATLSVSPGERATISCRASQRVSSSTYSYMHWYQQKPGQPPKLLIKYASNLESGVPARFSGSGSGTDFTLTISSVEPEDFATYYCQHSWEIPPTFGGGTKLEIKRTVAAPSVFIFPPSDEQLKSGTASVVCLLNNFYPREAKVQWKVDNALQSGNSQESVTEQDSKDSTYSLSSTLTLSKADYEKHKVYACEVTHQGLSSPVTKSFNRGEC
modifications: chain 1 pos 1: N-terminal Gln largely converted to pyroglutamate, written Q; Fc aglycosylated
The IC50 is the concentration that inhibits the measured activity by half. A higher IC50 goes with a need for much substance. B1 registered a concentration for half-maximal inhibition (IC50) in assay [1] of 434 µM.

B2: EC326 (hu5c8 IgG4.P S228P, T307P, L309K, D399S, glycosylated) (antibody)
heavy: B1 heavy with A297T
light: B1 light
modifications: heavy chain pos 1: Gln largely converted to pyroglutamate (Table 3.3), written Q; N-linked glycan (G0F, G1F, G2F, G0) at EU N297 = heavy chain pos 295
As for B2, the IC50 in assay [2] is 8 µM; in assay [3], 380 µM; in assay [1], 7.56 µM.

B3: EC331 (hu5c8 aglycosylated IgG4.P T299K, T307P with IgG1 CH3) (antibody)
heavy: B1 heavy with A297K, K307L, Q353R, E354D, M356L, S397D, R407K, E417Q, L443P
light: B1 light
modifications: chain 1 pos 1: N-terminal Gln largely converted to pyroglutamate, written Q; Fc aglycosylated
As for B3, the IC50 in assay [1] amounted to 2600 µM.

B4: YC401 (hu5c8 aglycosylated IgG4.P S228P, T299A, T307P, D399S) (antibody)
heavy: B1 heavy with K307L
light: B1 light
modifications: chain 1 pos 1: N-terminal Gln largely converted to pyroglutamate, written Q; Fc aglycosylated
For the molecule B4, the concentration for half-maximal inhibition (IC50) in assay [1] turned out to be 377 µM.

The values above are taken from patent US20120100140A1.
